Earlier results on two substances are cited in publication PMC10919381.

pKd: −log10 of the molar value. Read-outs that look alike come from different tables or passages of the source.

Data set [1] deals with CBP/p300 TAZ1 (Homo sapiens) (UniProt Q92793).
The target is the same in data set [2]. The source holds these as a separate data set.

UniProt Q92793, sequence (Q92793 347-433): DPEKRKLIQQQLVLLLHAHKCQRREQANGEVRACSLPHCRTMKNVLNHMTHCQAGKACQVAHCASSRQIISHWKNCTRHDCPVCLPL

Regarding CITED2 (from UniProt Q99967), the pKd in data set [1] was 8.00.
For the substance HIF-1α (from UniProt Q16665), in data set [2], the pKd was 8.00.

The pKd is the negative decadic logarithm of the Kd, by convention in mol/L.
